# Experimental data: patent US20230151069A1, “Cyclic Peptides” (LIFEARC, priority 2020, published 2023)
# Tests used:
# 5XFAD mice [1] = assay: Active immunisation, plaque load by immunohistochemistry in 5XFAD brain sections; format: in vivo; conditions: 5XFAD mouse cortex, FIG. 29
# Procedure: 5XFAD mice were immunized with antigen [Thioacetal bridged amyloid-beta peptide 1-14—KLH conjugate; DAC*[…]*HH[Cys]-amide (*S—CH—S bridged, cyclised via positions 3 and 12)] as described previously.
# Mice were sacrificed via CO2 anesthetization followed by cervical dislocation. Brain samples were carefully dissected and post-fixed in 4% phosphate-buffered formalin at 4° C. Human and mouse tissue samples were processed as previously described 4. In brief, 4 μm paraffin sections were deparaffinized in xylene, followed by rehydration in a series of ethanol. […] Non-specific binding sites were blocked by treatment with skim milk and fetal calf serum in PBS, prior to the addition of the primary antibodies. The following antibodies were used: polyclonal antibody 24311 against […], monoclonal antibody 1-57 against pyroglumatate Aβ3-X, (Synaptic Sytems, GOttingen, Germany; 1 mg/ml; 1:500), and TAP01_4 (1:200; 2 mg/ml). Corresponding biotinylated secondary anti-human and anti-mouse antibodies (1:200) were purchased from DAKO (Glostrup, Denmark). Staining was visualized using the ABC method, with a Vectastain kit (Vector Laboratories, Burlingame, USA) and diaminobenzidine (DAB) as chromogen. Counterstaining was carried out with hematoxylin.
# Plaque load was quantified as previously described (G. Antonios et al., Alzheimer therapy with an antibody against N-terminal Abeta 4-X and pyroglutamate Abeta 3-X. Scientific reports 5, 17338 (2015)). 5-6 paraffin embedded sections, which were at least 80 μm afar from each other, were stained simultaneously with DAB as chromogen. For Thioflavin S fluorescent staining tissue sections were deparaffinized and rehydrated, washed twice in deionized water and then treated with 1% (w/v) ThioflavinS in aqueous solution and counterstained in a 1% (w/v) aqueous solution of 4′6-diamidin-2-phenylindol. The relative Aβ load was evaluated using an Olympus BX-51 microscope equipped with an Olympus DP-50 camera and the ImageJ software (NIH, USA). Representative pictures of 100× magnification were systematically captured. […]
# Tg4-42 mice = assay: Quantification of CA1 neuron numbers by unbiased stereology in Tg4-42 mice; format: in vivo, mouse; conditions: aged Tg4-42 mice
# Procedure: Tg4-42 mice were immunized at 6 weeks of age for 12 weeks with antigen [Thioacetal bridged Abeta peptide 1-14—KLH conjugate; DAC*[…]*HH[Cys]-amide (*S—CH—S bridged)] emulsified in complete Freund's adjuvant (CFA), followed by booster doses of protein emulsified in incomplete Freund's adjuvant (IFA). Booster injections of antigen emulsified in IFA was administered at day 14, day 28, day 42, thereafter monthly (3 times after month 4, 5 and 6), after immunization with antigen/CFA emulsion. Mice were acclimated at our facility for at least 7 days before immunization. […]
# Stereological analysis was performed as previously described (G. Antonios et al., Alzheimer therapy with an antibody against N-terminal Abeta 4-X and pyroglutamate Abeta 3-X. Scientific reports 5, 17338 (2015)). The hippocampal cell layer CA1 (Bregma −1.22 to −3.52 mm) was delineated on cresyl violet-stained sections and analysed with a stereology workstation (Olympus BX51 with a motorized specimen stage for automatic sampling), StereoInvestigator 7 (MicroBrightField, Williston, USA) and a 100x oil lens (NA=1.35).
# The treatment effect of active immunization was assessed in 6.5 month old Tg4-42 mice on hippocampus-dependent learning and memory by the Morris water maze test (FIG. 31A) and by counting the total number of CA1 neurons in the hippocampus (FIG. 31B). […]
# 5XFAD mice [2] = assay: Active immunisation, 18F-Florbetaben-PET/MRI amyloid-plaque imaging in 5XFAD mice; format: in vivo, mouse; conditions: immunized 5XFAD mice, cortex, hippocampus and amygdala
# Procedure: 5XFAD mice were immunized at 6 weeks of age for 12 weeks with antigen [Thioacetal bridged amyloid-beta peptide 1-14—KLH conjugate; DAC*[…]*HH[Cys]-amide (*S—CH—S bridged, cyclised via positions 3 and 12)] emulsified in complete Freund's adjuvant (CFA), followed by booster doses of protein emulsified in incomplete Freund's adjuvant (IFA). Mice were acclimated at our facility for at least 7 days before immunization. Mice were injected with antigen emulsified in CFA subcutaneously at two sites on the back, injecting 0.05 to 0.1 mL at each site (total of 0.1 to 0.2 mL per mouse).
# Booster injections of antigen emulsified in IFA was administered at day 14, day 28, day 42 and 10 weeks after immunization with antigen/CFA emulsion. The booster is given as a single subcutaneous injection with 0.1 mL of IFA emulsion, at one site on the back. […]
# All images were analyzed using PMOD v3.9 (PMOD Technologies, Switzerland) as described before (Bouter et al). […] PET VOI statistics (kBq/cc) were generated for all brain areas and standardized uptake values (SUVs) were calculated [SUV=tissue activity concentration average (kBq/cc)×body weight (g)/injected dose (kBq)] for semi-quantitative analysis. SUVs of 18F-FDG-PET scans were corrected for measured blood glucose levels [SUVGIc=SUV x blood glucose level (mg/dl)]. […]
substance,measurement,setting,value
"DAC*FRHDSGYEC*HH[Cys]-amide (*S—CH—S bridged, cyclised via positions 3 and 12)","amyloid-plaque load in brain tissue (pan-Abeta, pyroglutamate Aβ3-X, Thioflavin S, N-truncated Aβ stainings)",5XFAD mice [1]; listed as 3-12 linked Aβ1-14 cyclic peptide,reduction in amyloid-plaque load
same,"amyloid-plaque load in brain tissue (pan-Abeta, pyroglutamate Aβ3-X, Thioflavin S, N-truncated Aβ stainings)",5XFAD mice [1]; listed as cyclised Aβ peptides,strong reduction of plaques
same,"amyloid-plaque load in brain tissue (pan-Abeta, pyroglutamate Aβ3-X, Thioflavin S, N-truncated Aβ stainings)",5XFAD mice [1]; listed as cyclized Aβ peptide,significant reduction in plaque load
same,loss / number of CA1 neurons (in words),Tg4-42 mice; FIG. 31B,significantly reduced loss of neurons
same,mean number (+SEM) of neurons in CA1 layer of hippocampus,Tg4-42 mice; IgG1 treated control 128687+13035,185858+39180
same,amyloid-plaque signal (fluorbetaben retention),5XFAD mice [2],drastically reduced
